Measurements reported in doi:10.1101/2023.06.21.546005 (bioRxiv, 2023).

Biological target: the molecule itself
Assay: crystal structure

Protein | stoichiometry N | binding result
Recombinant wild-type L-chain ferritin from horse spleen (natural protein, UniProt P02791 1-175, looked up) MSSQIRQNYSTEVEAAVNRLVNLYLRASYTYLSLGFYFDRDDVALEGVCHFFRELAEEKREGAERLLKMQNQRGGRALFQDLQKPSQDEWGTTLDAMKAAIVLEKSLNQALLDLHALGSAQADPHLCDFLESHFLDEEVKLIKKMGDHLTNIQRLVGSQAGLGEYLFERLTLKHD | 24 | 
Fr-S118A (natural protein, horse, UniProt P02791 1-175, looked up) MSSQIRQNYSTEVEAAVNRLVNLYLRASYTYLSLGFYFDRDDVALEGVCHFFRELAEEKREGAERLLKMQNQRGGRALFQDLQKPSQDEWGTTLDAMKAAIVLEKSLNQALLDLHALGAAQADPHLCDFLESHFLDEEVKLIKKMGDHLTNIQRLVGSQAGLGEYLFERLTLKHD |  | binds
Fr-A115G (natural protein, horse, UniProt P02791 1-175, looked up) MSSQIRQNYSTEVEAAVNRLVNLYLRASYTYLSLGFYFDRDDVALEGVCHFFRELAEEKREGAERLLKMQNQRGGRALFQDLQKPSQDEWGTTLDAMKAAIVLEKSLNQALLDLHGLGSAQADPHLCDFLESHFLDEEVKLIKKMGDHLTNIQRLVGSQAGLGEYLFERLTLKHD |  | binds
Fr-A115T (natural protein, horse, UniProt P02791 1-175, looked up) MSSQIRQNYSTEVEAAVNRLVNLYLRASYTYLSLGFYFDRDDVALEGVCHFFRELAEEKREGAERLLKMQNQRGGRALFQDLQKPSQDEWGTTLDAMKAAIVLEKSLNQALLDLHTLGSAQADPHLCDFLESHFLDEEVKLIKKMGDHLTNIQRLVGSQAGLGEYLFERLTLKHD |  | binds
Fr-H114A (natural protein, horse, UniProt P02791 1-175, looked up) MSSQIRQNYSTEVEAAVNRLVNLYLRASYTYLSLGFYFDRDDVALEGVCHFFRELAEEKREGAERLLKMQNQRGGRALFQDLQKPSQDEWGTTLDAMKAAIVLEKSLNQALLDLAALGSAQADPHLCDFLESHFLDEEVKLIKKMGDHLTNIQRLVGSQAGLGEYLFERLTLKHD |  | binds
Fr-A115V (natural protein, horse, UniProt P02791 1-175, looked up) MSSQIRQNYSTEVEAAVNRLVNLYLRASYTYLSLGFYFDRDDVALEGVCHFFRELAEEKREGAERLLKMQNQRGGRALFQDLQKPSQDEWGTTLDAMKAAIVLEKSLNQALLDLHVLGSAQADPHLCDFLESHFLDEEVKLIKKMGDHLTNIQRLVGSQAGLGEYLFERLTLKHD |  | binds
